Assay results taken from paper PMC10397247.
Values belong to the binder of their own block, whether it stands above or below them.

How the values were obtained:
[1] = target: T1, 4H949-bA; experiment: two-hybrid library CCNG1;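 also: natural log of median RNA to DNA barcode read ratio; higher means stronger binding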
T1 chain: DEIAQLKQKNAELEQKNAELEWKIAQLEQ

[2] = target: T2, 4H967-bN; experiment: two-hybrid library CCNG1;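 also: natural log of median RNA to DNA barcode read ratio; higher means stronger binding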
T2 chain: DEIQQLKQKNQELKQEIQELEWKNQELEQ

[3] = target: T3, 4H932-bA; experiment: two-hybrid library CCNG1;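 also: natural log of median RNA to DNA barcode read ratio; higher means stronger binding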
T3 chain: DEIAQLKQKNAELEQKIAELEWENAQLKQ

[4] = target: T4, 4H796-bA; experiment: two-hybrid library CCNG1;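 also: natural log of median RNA to DNA barcode read ratio; higher means stronger binding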
T4 chain: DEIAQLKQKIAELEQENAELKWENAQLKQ

[5] = target: T5, 4H3364-bA; experiment: two-hybrid library CCNG1;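 also: natural log of median RNA to DNA barcode read ratio; higher means stronger binding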
T5 chain: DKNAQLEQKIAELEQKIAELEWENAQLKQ

[6] = target: T6, 4H3381-bA; experiment: two-hybrid library CCNG1;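 also: natural log of median RNA to DNA barcode read ratio; higher means stronger binding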
T6 chain: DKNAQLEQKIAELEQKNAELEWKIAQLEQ

[7] = target: T7, 4H626-bA; experiment: two-hybrid library CCNG1
T7 chain: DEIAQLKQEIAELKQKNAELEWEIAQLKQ

[8] = target: T8, 4H56-bA; experiment: two-hybrid library CCNG1
T8 chain: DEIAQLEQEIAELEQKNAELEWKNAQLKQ

[9] = target: T9, 4H3041-bA; experiment: two-hybrid library CCNG1
T9 chain: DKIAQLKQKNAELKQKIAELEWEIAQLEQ

[10] = target: T10, 4H3297-bA; experiment: two-hybrid library CCNG1
T10 chain: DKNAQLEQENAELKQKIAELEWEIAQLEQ

[11] = target: T11, 4H730-bA; experiment: two-hybrid library CCNG1
T11 chain: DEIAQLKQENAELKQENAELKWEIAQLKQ

[12] = target: T12, 4H2931-bA; experiment: two-hybrid library CCNG1
T12 chain: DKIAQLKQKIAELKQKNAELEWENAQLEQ

[13] = target: T13, 4H2760-bA; experiment: two-hybrid library CCNG1
T13 chain: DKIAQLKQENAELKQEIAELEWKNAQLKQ

[14] = target: T14, 4H2859-bA; experiment: two-hybrid library CCNG1
T14 chain: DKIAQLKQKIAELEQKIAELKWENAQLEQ

[15] = target: T15, 4H349-bA; experiment: two-hybrid library CCNG1
T15 chain: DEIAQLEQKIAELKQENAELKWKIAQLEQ

[16] = target: T16, 4H2760-bN; experiment: two-hybrid library CCNG1
T16 chain: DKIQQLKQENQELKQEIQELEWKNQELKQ

[17] = target: T17, P2-AA-1HAA-I; experiment: two-hybrid library CCmax; conditions: mean of both orientations
T17 chain: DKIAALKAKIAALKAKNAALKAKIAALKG

[18] = target: T18, P2-AA-1HAA-V; experiment: two-hybrid library CCmax; conditions: mean of both orientations
T18 chain: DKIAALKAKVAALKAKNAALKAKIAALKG

[19] = target: T19, P2-AA-1HAA-T; experiment: two-hybrid library CCmax; conditions: mean of both orientations
T19 chain: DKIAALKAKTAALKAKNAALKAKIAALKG

[20] = target: T20, P2-AA; experiment: two-hybrid library CCmax; conditions: mean of both orientations
T20 chain: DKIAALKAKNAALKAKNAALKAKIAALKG

[21] = target: T21, P2-AA-1HAA-E; experiment: two-hybrid library CCmax; conditions: mean of both orientations
T21 chain: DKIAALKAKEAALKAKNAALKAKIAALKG

[22] = target: T22, P2-AA-1HAA-D; experiment: two-hybrid library CCmax; conditions: mean of both orientations
T22 chain: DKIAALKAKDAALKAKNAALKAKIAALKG

[23] = target: T23, P2-AA-1HAA-R; experiment: two-hybrid library CCmax; conditions: mean of both orientations
T23 chain: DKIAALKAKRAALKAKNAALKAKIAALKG

[24] = target: T24, P9SHb; experiment: two-hybrid library CCNG1
T24 chain: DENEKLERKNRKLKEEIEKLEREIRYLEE

[25] = target: T25, P7SHb; experiment: two-hybrid library CCNG1
T25 chain: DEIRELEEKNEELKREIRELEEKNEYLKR

[26] = target: T26, P8SHb; experiment: two-hybrid library CCNG1
T26 chain: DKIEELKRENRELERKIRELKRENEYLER

[27] = target: T27, 4H319-bA; experiment: two-hybrid library CCNG1
T27 chain: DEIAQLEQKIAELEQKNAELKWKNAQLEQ

[28] = target: T28, 4H3057-bA; experiment: two-hybrid library CCNG1
T28 chain: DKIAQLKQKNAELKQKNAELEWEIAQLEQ

[29] = target: T29, 4H2915-bA; experiment: two-hybrid library CCNG1
T29 chain: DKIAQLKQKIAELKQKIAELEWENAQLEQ

[30] = target: T30, 4H477-bA; experiment: two-hybrid library CCNG1
T30 chain: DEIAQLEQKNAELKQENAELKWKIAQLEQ

[31] = target: T31, 4H2839-bA; experiment: two-hybrid library CCNG1
T31 chain: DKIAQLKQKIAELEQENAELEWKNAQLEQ

[32] = target: T32, 4H2717-bA; experiment: two-hybrid library CCNG1
T32 chain: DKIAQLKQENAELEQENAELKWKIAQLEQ

[33] = target: T33, O6-bP; experiment: two-hybrid library CCNG1
T33 chain: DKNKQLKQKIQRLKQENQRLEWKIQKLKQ

[34] = target: T34, 4H492-bA; experiment: two-hybrid library CCNG1
T34 chain: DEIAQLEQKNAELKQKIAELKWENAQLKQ

[35] = target: T35, 4H741-bA; experiment: two-hybrid library CCNG1
T35 chain: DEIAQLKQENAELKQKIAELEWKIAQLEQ

[36] = target: T36, 4H319-bN; experiment: two-hybrid library CCNG1
T36 chain: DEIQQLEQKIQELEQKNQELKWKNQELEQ

[37] = target: T37, 4H348-bA; experiment: two-hybrid library CCNG1
T37 chain: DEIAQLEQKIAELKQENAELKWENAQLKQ

[38] = target: T38, 4H3298-bA; experiment: two-hybrid library CCNG1
T38 chain: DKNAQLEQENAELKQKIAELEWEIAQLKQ

[39] = target: T39, 4H2692-bA; experiment: two-hybrid library CCNG1
T39 chain: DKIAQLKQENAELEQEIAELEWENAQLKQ

[40] = target: T40, 4H2859-bH; experiment: two-hybrid library CCNG1
T40 chain: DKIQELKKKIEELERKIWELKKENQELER

[41] = target: T41, 4H3277-bA; experiment: two-hybrid library CCNG1
T41 chain: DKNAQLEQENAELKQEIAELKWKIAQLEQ

[42] = target: T42, 4H40-bA; experiment: two-hybrid library CCNG1
T42 chain: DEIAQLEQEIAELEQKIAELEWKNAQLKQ

- interaction score [1]: -1.14
- interaction score [2]: -2.38
- interaction score [3]: 0.295
- interaction score [4]: -0.576
- interaction score [5]: 0.448
- interaction score [6]: -0.726
- interaction score [7]: -2.94
- interaction score [8]: -1.54
- interaction score [9]: 0.518
- interaction score [10]: 1.18
- interaction score [11]: -0.287
- interaction score [12]: -0.0923
- interaction score [13]: 0.895
- interaction score [14]: 0.0768
- interaction score [15]: -0.95
- interaction score [16]: -1.33
Binder: DKIAQLKQENAELKQEIAELEWKNAQLKQ [4H2760-bA]

- interaction score [17]: 2.07
- interaction score [18]: 1.99
- interaction score [19]: 1.95
- interaction score [20]: 2.07
- interaction score [21]: 0.866
- interaction score [22]: 0.371
- interaction score [23]: 1.52
Binder: DEIAALEAEYAALEAENAALEAEIAALEG [P1-AA-1HAA-Y]

- interaction score [24]: 0.021
- interaction score [25]: -0.618
- interaction score [26]: 1.18
Binder: DEIRELEEKNEELKREIRELEEKNEYLKR [P7SHb]

- interaction score [27]: -0.498
- interaction score [28]: -0.734
- interaction score [29]: 0.654
- interaction score [30]: -1.06
- interaction score [31]: -1.15
- interaction score [32]: -0.0486
- interaction score [33]: 0.95
- interaction score [34]: 2.26
- interaction score [35]: -0.251
- interaction score [36]: 0.192
- interaction score [37]: -1.58
- interaction score [38]: 1.59
- interaction score [39]: -0.461
- interaction score [40]: -0.0963
- interaction score [41]: -0.458
- interaction score [42]: -0.113
Binder: DKIAQLKQENAELEQEIAELEWENAQLKQ [4H2692-bA]
